The values that follow come from article PMC4225554.

In assay [1] the target is RD1-MART1 single-chain TCR, yeast-displayed (human). Nature of the assay: flow cytometry on cells. (In general: A flow cytometer gives signals particle by particle.)
For assay [2], the target named is RD1-MART1^HIGH single-chain TCR, yeast-displayed (human). Nature of the assay: flow cytometry on cells.

Regarding “MART1 ([…])/HLA-A2, refolded biotinylated monomer (from UniProt P61769 21-119) (peptide-MHC)”, the EC50 (commonly the concentration giving half of the maximal effect) in assay [1] was more than 5000 nM; in assay [2], 52 nM.

For the substance “MART1 ([…])/HLA-A2-Ig dimer (from UniProt P61769 21-119) (peptide-MHC)”, the EC50 in assay [1] amounted to 130 nM.
